From patent US20170210799A1 (Janssen / Centocor, published 2017) come the findings set out here.

Assay [1] has as its target T1, human ROR1 (Receptor Tyrosine Kinase-Like Orphan Receptor 1) on cells (human, UniProt Q01973 30-937).
T1 construct: whole, on cells; endogenous on SKMES-1, MDA-MB231, H358, HCC827 and MCL lines, or on HEK293 cells transfected with human ROR1 (pDR25226); the cell line is named under assay; also called cell-surface ROR1; hu ROR1
Description: cell binding, ROR1 expressing H358 cells.

For assay [2], the target named is T2, ROR1 extracellular domain c-Mer proto-oncogene tyrosine kinase transmembrane domain (ROR1 ECD MERTK tm) (Homo sapiens (Human), UniProt Q01973 30-405).
T2 construct: also called RR1W1; ROR1-Transfected CHO
T2 sequence (Q01973 other isoform, or with tags, fused parts or gaps): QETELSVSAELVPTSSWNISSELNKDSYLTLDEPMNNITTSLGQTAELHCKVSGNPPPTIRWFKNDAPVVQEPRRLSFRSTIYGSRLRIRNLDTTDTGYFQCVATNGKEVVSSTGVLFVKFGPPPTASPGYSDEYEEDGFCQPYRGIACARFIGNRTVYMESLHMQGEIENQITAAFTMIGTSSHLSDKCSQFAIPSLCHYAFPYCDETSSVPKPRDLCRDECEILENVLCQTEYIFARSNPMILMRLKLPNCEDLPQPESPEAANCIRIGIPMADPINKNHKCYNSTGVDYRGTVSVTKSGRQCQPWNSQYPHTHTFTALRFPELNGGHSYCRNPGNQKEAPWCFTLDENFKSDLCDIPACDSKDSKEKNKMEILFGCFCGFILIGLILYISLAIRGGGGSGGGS
Description: cell binding, ROR1 transiently transfected HEK293F cells.

Assay [3] has as its target T3, human ROR1 (Receptor Tyrosine Kinase-Like Orphan Receptor 1) on cells (human, UniProt Q01973 30-937).
T3 construct: whole, on cells; also called hu ROR1
In words: cell binding, H358 cells.

The target in assay [4] is ROR1 ECD MERTK tm (RR1W1) on transfected HEK293F cells (Homo sapiens (Human), UniProt Q01973 30-405). Description: cell binding, ROR1 transfected 293F cells.
Sequence of ROR1 ECD MERTK tm (RR1W1) on transfected HEK293F cells (Q01973 other isoform, or with tags, fused parts or gaps): as above
The target in assay [5] is T3, human ROR1 (Receptor Tyrosine …). Description: MSD-CAT, HEK293 cells expressing human ROR1; apparent KD (bivalent, avidity).

B1: CD3B219 (antibody, human IgG4 S228P, lambda, F234A L235A, V domains shown)
VH: EVQLVESGGGLVQPGGSLRLSCAASGFTFNTYAMNWVRQAPGKGLEWVARIRSKYNNYATYYAASVKGRFTISRDDSKNSLYLQMNSLKTEDTAVYYCARHGNFGNSYVSWFAYWGQGTLVTVSS
VL: QTVVTQEPSLTVSPGGTVTLTCRSSTGAVTTSNYANWVQQKPGQAPRGLIGGTNKRAPGTPARFSGSLLGGKAALTLSGVQPEDEAEYYCALWYSNLWVFGGGTKLTVLG
notes: IgG4 PAA anti-CD3 parental antibody; also called anti-CD3 antibody CD3B219; anti-CD3 antibodies
Consider B1, for which the binding result in assay [1] and in assay [2] was “no binding” throughout.

B2: CD3B219 (antibody, human IgG4 S228P, lambda, F234A L235A, V domains shown)
VH: EVQLVESGGGLVQPGGSLRLSCAASGFTFNTYAMNWVRQAPGKGLEWVARIRSKYNNYATYYAASVKGRFTISRDDSKNSLYLQMNSLKTEDTAVYYCARHGNFGNSYVSWFAYWGQGTLVTVSS
VL: QTVVTQEPSLTVSPGGTVTLTCRSSTGAVTTSNYANWVQQKPGQAPRGLIGGTNKRAPGTPARFSGSLLGGKAALTLSGVQPEDEAEYYCALWYSNLWVFGGGTKLTVLG
notes: parental anti-CD3 mAb; also called anti-CD3 antibody; Anti-CD3
Take B2: the binding result in assay [3] and in assay [4] was “no binding” throughout.

B3: RR1B67 (antibody, human IgG4 S228P, kappa, F234A L235A, V domains shown)
VH: QVQLVQSGAEVKKPGSSVKVSCKASGGTFSTYAIHWVRQAPGQGLEWMGRIIPIEGRAYYAQKFQGRVTITADESTSTAYMELSSLRSEDTAVYYCARGRYSYRYWFDYWGQGTLVTVSS
VL: EIVLTQSPATLSLSPGERATLSCRASQSVSSYLAWYQQKPGQAPRLLIYDASNRATGIPARFSGSGSGTDFTLTISSLEPEDFAVYYCQQRSNWPLTFGQGTKVEIKR
notes: huIgG4 PAA, kappa; also called RRIB67
For the molecule B3, the Kd in assay [5] amounted to 0.055 nM.
